Test results from patent US20230391891A1 (SYNTHEKINE, published 2023).

T1: extracellular domain of hIL10Rb (human, UniProt Q08334 20-220)
T1 construct: also called hIL10Rb ECD; human IL10Rb
T1 sequence: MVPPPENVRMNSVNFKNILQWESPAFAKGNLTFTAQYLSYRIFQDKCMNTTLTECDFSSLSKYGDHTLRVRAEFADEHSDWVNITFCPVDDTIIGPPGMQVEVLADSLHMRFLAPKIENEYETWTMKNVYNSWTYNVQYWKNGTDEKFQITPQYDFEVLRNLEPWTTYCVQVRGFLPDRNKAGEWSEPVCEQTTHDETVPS

T2: extracellular domain of mIL10Rb (mouse, UniProt Q61190 20-220)
T2 construct: also called mIL10Rb ECD; murine IL10Rb
T2 sequence: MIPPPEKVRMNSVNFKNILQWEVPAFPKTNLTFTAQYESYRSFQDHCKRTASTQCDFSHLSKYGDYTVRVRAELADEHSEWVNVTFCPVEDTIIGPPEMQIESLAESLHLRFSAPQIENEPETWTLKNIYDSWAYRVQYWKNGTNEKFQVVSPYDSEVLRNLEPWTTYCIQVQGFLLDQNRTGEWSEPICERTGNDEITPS


Assays:
[1] = target: T1, extracellular domain of hIL10Rb; assay: flow cytometry
[2] = target: T2, extracellular domain of mIL10Rb; assay: flow cytometry, cross-reactivity

Binder	binding result [1]	binding result [2]
hIL10Rb_VHH-27 (VHH, anti-hIL10Rb camel VHH) VHH: QVQLQESGGGSVQTGGSLRLSCAASGYTYLRGCMGWFRQAPGKEREGVAVMDVVGDRRSYIDSVKGRFTISRDNAANSVYLQMDNLKPEDTAMYYCTAGPNCVGWRSGLDYWGQGTQVTVSS	binds	–
hIL10Rb_VHH-4 (VHH, anti-hIL10Rb camel VHH) VHH: QVQLQESGGGSIQAGGSLRLSCAASRYLYSIDYMAWFRQSPGKEREPVAVIYTASGATFYPDSVKGRFTISQDNAKMTVYLQMNSLKSEDTAMYYCAAVRKTDSYLFDAQSFTYWGQGTQVTVSS	binds	binds
hIL10Rb_VHH-6 (VHH, anti-hIL10Rb camel VHH) VHH: QVQLQESGGGSIQAGGSLTLSCAASRDLYSTNYVAWFRQSPGKEREAVAVIYTASGATLYSDSVKGRFTISQDNAKMTVYLQMNSLKSEDTAMYYCAAVRKTGHYLFDAQSFTYWGQGTQVTVSS	binds	binds
hIL10Rb_VHH-16 (VHH, anti-hIL10Rb camel VHH) VHH: QVQLQESGGGSVEAGGSLRLSCAASGYTHSSYCMGWFRQAPGKEREGVAAIDVDGSTTYADSVKGRFTISKDNAKNTLYLQMNSLKPEDTGMYYCAAEFADCSSNYFLPPGAVRYWGQGTQVTVSS	binds	binds
hIL10Rb_VHH-3 (VHH, anti-hIL10Rb camel VHH) VHH: QVQLQESGGGSVQAGGSLRLSCAASRYTYNSYCMGWFRQAPGKEREGVATIDSDGMTRYADSVKGRFTISKDNAKNTLYLQMNSLKPEDTAMYYCAADADCTIAAMTTNPLGQGTQVTVSS	binds	binds
hIL10Rb_VHH-26 (VHH, anti-hIL10Rb camel VHH) VHH: QVQLQESGGGSVQAGGSLRLSCAASGYSYSSYCMGWFRQAPGKEREGVATIDSDGMTRYADSVKGRFTISKDNAKNTLYLQMNSLKPEDTAMYYCAAPLYDCDSGAVGRNPPYWGQGTQVTVSS	binds	binds
hIL10Rb_VHH-15 (VHH, anti-hIL10Rb camel VHH) VHH: QVQLQESGGGSVQAGGSLRLSCTVSRYTASVNYMGWFRQAPGKEREGVATIFTGAGTTYYANSVKGRFTISRDNAKNTAYLQMNSLKPEDTAIYYCAVDFRGGLLYRPAYEYTYRGQGTQVTVSS	binds	–
hIL10Rb_VHH-17 (VHH, anti-hIL10Rb camel VHH) VHH: QVQLQESGGGSVQAGGSLRLSCTVSRYTASVNYMGWFRQAPGKEREGVATIFTGAGTTYYANSVKGRFTISRDNAKNTAYLQMNSLKPEDTAMYYCAVDFRGGLLYRPAYEYTYRGQGTQVTVSS	binds	–
hIL10Rb_VHH-12 (VHH, anti-hIL10Rb camel VHH) VHH: QVQLQESGGGSVQAGGSLRLSCAASGYTYSSYCMGWFRQAPGKEREGVAHIDSDGSTSYADSVKGRFTISKDNAKNTLYLQMNSLKPEDTAMYYCAADPIPGPGYCDGGPNKYWGQGTQVTVSS	binds	binds
hIL10Rb_VHH-10 (VHH, anti-hIL10Rb camel VHH) VHH: QVQLQESGGGLVQPGGSLRLSCAASGYTYSSYCMGWFRQAPGKEREGVAHIDSDGSTTYADSVKGRFAISKDNAKNTLYLQMNSLKPEDTAMYYCAADPIPGPGYCDGGPNKYWGQGTQVTVSS	binds	binds
hIL10Rb_VHH-22 (VHH, anti-hIL10Rb camel VHH) VHH: QVQLQESGGGSVQAGGSLRLSCAASGYTDSRYCMGWFRKAPGKEREGVAHIDSDGSTSYADSVKGRFTISKDNAKNTLYLQMNSLKPEDTAMYYCAADPIPGPGYCDGGPNKYWGQGTQVTVSS	binds	binds
hIL10Rb_VHH-24 (VHH, anti-hIL10Rb camel VHH) VHH: QVQLQESGGGSVQAGGSLKLSCAASGYTYSSYCMGWFRQAPGKEREGVAHIDSDGSTTYADSVKGRFTISKDNAKNTLYLQMNSLKPEDTAMYYCAADPIPGPGYCDGGPNNYWGQGTQVTVSS	binds	binds
hIL10Rb_VHH-19 (VHH, anti-hIL10Rb camel VHH) VHH: QVQLQESGGGSVQAGGSLRLSCAASGYTYSSYCMGWFRQAPGKEREGVAHIDSDGSTSYADSVKGRFTISKDNAKNTLYLQMNSLKPEDTAMYYCAADPIPGPGYCDGGPNKYRGQGTQVTVSS	binds	binds
hIL10Rb_VHH-20 (VHH, anti-hIL10Rb camel VHH) VHH: QVQLQESGGGSVQAGGSLRLSCAASGYTYSSYCMGWFRQAPGKEREGVAHIDSDGSTTYADSVKGRFAISKDNAKNTLYLQMNSLKPEDTAMYYCAADPIPGPGYCDGGPNKYWGQGTQVTVSS	binds	binds
hIL10Rb_VHH-13 (VHH, anti-hIL10Rb camel VHH) VHH: QVQLQESGGGSVQAGGSLRLSCAASGYTYSSYCMGWFRQAPGKEREGVAHIDSDGSTSYADSVKGRFTISKDNAKNTLYLQMNSLKPEDTAMYYCAADPIPGPGYCDGGPNNYWGQGTQVTVSS	binds	binds
hIL10Rb_VHH-2 (VHH, anti-hIL10Rb camel VHH) VHH: QVQLQESGGGSVQAGGSLRLSCAASGYTYSSYCMGWFRQAPGKEREGVAAIDSDGSTRYADSVKGRFTISKDNAKNTLYLQMNSLKPEDTAMYYCAAEPYCSGGYKRTMVAEFGYWGQGTQVTVSS	binds	–

Continued, values first:

binding result [1]	binding result [2]	Binder
binds	–	hIL10Rb_VHH-5 (VHH, anti-hIL10Rb camel VHH) VHH: QVQLQESGGGLVQPGGSLRLSCAASGYTYSSYCMGWFRQAPGKEREGVAHIDSDGSTTYADSVKGRFTISKDNAKNTLYLQMNSLKPEDTAMYYCAADPIPGPGYCDGGPNKYWGQGTQVTVSS
binds	binds	hIL10Rb_VHH-25 (VHH, anti-hIL10Rb camel VHH) VHH: QVQLQESGGGSVQAGGSLRLSCAASGYTYSSYCMGWFRQAPGKEREGIAHIDSDGSTTYADSVKGRFTISKDNAKNTLYLQMNSLKPEDTAMYYCAADPIPGPGYCDGGPNNYWGQGTQVTVSS
binds	–	hIL10Rb_VHH-8 (VHH, anti-hIL10Rb camel VHH) VHH: QVQLQESGGGSVQAGGSLRLSCAASGYSYSSYCMGWFRQAPGKEREGVAAIASDGSTSYADSVKGRFAISKDNAKNTLYLQMASLKPEDTAMYYCAAEPWCTGGYSRLTPAEYGYWGQGTQVTVSS
binds	–	hIL10Rb_VHH-1 (VHH, anti-hIL10Rb camel VHH) VHH: QVQLQESGGGSVQAGGSLRLSCAASGYTYSSGCMGWFRQAPGKEREAVAAINSDGSTSYADSVKGRFTISKDNAKNTLYLQMNSLKPEDTAMYYCAAEPYCSGGYPRWSVAEFGYWGQGTQVTVSS
binds	–	hIL10Rb_VHH-23 (VHH, anti-hIL10Rb camel VHH) VHH: QVQLQESGGGSVQAGGSLRLSCAASGYTYSSYCMGWFRQAPGKEREGVAAIDSDGSTRYADSVKGRFTISKDNAKKILYLQMNSLKVEDTAMYYCAAEPYCSGGYKRTMVAEFGFWGQGTQVTVSS
binds	–	hIL10Rb_VHH-9 (VHH, anti-hIL10Rb camel VHH) VHH: QVQLQESGGGLVQPGGSLRLSCAASGYTYSSGCMGWFRQAPGKEREGVATINSDGSTNYADSVKGRFTISKDNAKNTLYLQMNSLKPEDTAMYYCAAEPYCSGGYPRWSVAEFGYWGQGTQVTVSS
binds	–	hIL10Rb_VHH-18 (VHH, anti-hIL10Rb camel VHH) VHH: QVQLQESGGGSVQAGGSLRLSCAASGDTYSSYCMGWFRQAPGKEREGVAFIDSDGSTRYADSVEGRFTISKDNAKNTLYLQMNSLKPEDTAMYYCAAEPYCSGGYHRKEMAEFGYWGQGTQVTVSS
binds	–	hIL10Rb_VHH-14 (VHH, anti-hIL10Rb camel VHH) VHH: QVQLQESGGGSVQAGGSLRLSCAASGYTYSSGCMGWFRQAPGKEREGVATINSDGSTNYADSVKGRFTISKDNAKNTLYLQMNSLKPEDTGMYYCAAEPYCSGGYPRWSVAEFGYWGQGTQVTVSS
binds	–	hIL10Rb_VHH-11 (VHH, anti-hIL10Rb camel VHH) VHH: QVQLQESGGGSVQAGGSLRLSCAASGYTYSSYCMGWFRQAPGKGREGVAAIDSDGSTRYADSVKGRFTISKDNAKNTLYLQMNSLKPEDTAMYYCAAEPYCSGGYKRTMVAEFGYWGQGTQVTVSS
binds	–	hIL10Rb_VHH-7 (VHH, anti-hIL10Rb camel VHH) VHH: QVQLQESGGGSVQAGGSLRLSCAASGYTYSSGCMGWFRQAPGKEREGVATINSDGSTNYADSVKGRFTISKDNAKNTLYLQMNSLKPEDTAMYYCAAEPYCSGGYPRWSVAEFGYWGQGTQVTVSS
